Data taken from patent US7465537B2, “Compounds and methods for inhibiting hepatitis C virus replication” (The Board of Trustees of the University of Arkansas, priority 2005, dated 2008).

Columns and labels:
[1] = system: HCV-Luc replicon; assay: HCV-Luc replicon luciferase assay in Huh-7 cells; assay type: cell-based, hepatitis C virus; details: peptide added to Huh-7 cells containing the replicon; 48 hours
Experimental: HCV Replicon assays: Huh-7 cells were transiently transfected with replicon RNA having a firefly (P. pyralis) luciferase gene (0.2 μg/well), and with a control plasmid pRL (0.05 μg/well) having a renilla (R. reniformis) luciferase gene, using DMRIEC (Invitrogen) reagent as per the kit protocol (19). The specific additions of pmNS3, mutant replicon, pwt-NS3 etc were done concurrently. The cells were lysed after 48 hours, and luciferase activity detected using the DUAL LUCIFERASE assay kit (Promega) (24, 25).
Trans complementation assays: These assays were performed in the same manner as the regular replicon assays except that in the trans complementation assays two RNA's of different replicons (wild type and the mutant) were added along with a pRL plasmid to control for transfection efficiency.
In vivo the dominant negative mNS3 (pmNS3) down regulates the activity of the HCV-Luc replicon: Huh-7 cells were plated in a 12-well plate at 0.1 million cells per well. […]
The peptide was introduced into Huh-7 cells containing the HCV luciferase replicon. 48 hours after introduction of the peptide, luciferase activity was measured. […]

[2] = biological target: fluorescein-labeled U20 RNA; assay: RNA binding assay by fluorescence polarization; details: 37° C.
Experimental: (§1) FIGS. 10A and B. Binding of mutant NS3h to fluorescein-labeled U20 RNA (FIG. 10A) or dT15 DNA (FIG. 10B). Nucleic acid binding was determined by measuring fluorescence polarization following incubation of protein and nucleic acid at 37° C. Data were fit to a hyperbola using Kaleidagraph software.
(§2) Varying concentrations of NS3h were incubated with 500 pM 5′-fluorescein-labeled rU20 (Integrated DNA Technologies) in 50 mM MOPS-K+(pH 7.0), 10 mM NaCl, 50 μM EDTA, 0.1 mg/ml BSA for 5 minutes at 37° C. Binding was measured as a function of fluorescence polarization using a Beacon fluorescence polarization system. Data were fit to a hyperbola using Kaleidagraph software.

[3] = biological target: dT15 DNA; assay: DNA binding by fluorescence polarization; details: 37° C.
Experimental: as §1, §2

[4] = Coupled ATPase assay stimulated by polyU; assay type: biochemical; details: saturating polyU
Experimental: FIG. 11. ATPase activity of mutant NS3h was measured as a function of NADH concentration in a coupled assay at varying concentrations of polyU. Data were fit to a hyperbola using Kaleidagraph software. […] Specific activity of NS3h DDDD (▪) was lower.
NS3h was incubated with 5 mM ATP in 50 mM HEPES (pH=7.5), 5 mM EDTA, 10 mM MgCl2, 10 mM NaCl, 0.1 mg/ml BSA, 4 mM phosphoenolpyruvate, 10 U/ml pyruvate kinase/lactate dehydrogenase, and 0.7 mg/ml NADH. Absorbance of NADH at 380 nm was measured at 1 sec intervals for a period of 30 sec in the presence of the indicated concentrations of poly-U. Hydrolysis rates were calculated using an extinction coefficient of 1,210 M^−1 cm^−1 for NADH. Data were fit to a hyperbola using Kaleidagraph software.

[5] = system: 45:30mer DNA substrate; assay: Steady state DNA unwinding assay; assay type: biochemical
Experimental: FIGS. 12A-C. Steady state unwinding activity of mutant versus wild type NS3h. A) The assay for measuring helicase unwinding activity is depicted. A partially duplexed substrate containing 30 bp and 15 nt of ss overhang (45:30mer) was incubated with NS3h in the presence of ATP and Mg^+2 leading to unwinding of the duplex. B) Comparison of unwinding of DNA and RNA substrates by NS3h. Otherwise identical 250 nM duplexed DNA and RNA substrates were incubated with 100 nM NS3h. Reactions were initiated by addition of 5 mM ATP and 10 mM MgCl2 and quenched by addition of 200 mM EDTA/0.7% SDS. C) Unwinding of 250 nM substrate under steady state conditions. Unwinding by 100 nM NS3h (●), NS3h KDA (∘), and NS3h DDDD (▪) occurred at rates of 5.3 nM min^−1, 5.7 nM min^−1, and 4.1 nM min^−1, respectively.
The substrate used was a 45-mer/30-mer containing 30 base pairs of double-stranded DNA with a 15 base 3′ single-stranded overhang. One strand was radiolabeled by incubation with γ-^32P-ATP and T4 polynucleotide kinase at 37° C. for 60 min. Unincorporated ATP was removed by SEPHADEX G-25 filtration. Equimolar amounts of labeled and complementary unlabeled strands were combined, heated to 95° C. for 10 min, and cooled slowly to room temperature to generate the final substrate. For steady state unwinding experiments, 100 nM NS3h was incubated with 250 nM substrate in 25 mM HEPES (pH=7.5), 0.5 mM EDTA, 10 mM MgCl2, 10 mM NaCl, 0.1 mg/ml BSA. Reactions were initiated by addition of 5 mM ATP. Aliquots were taken at specific time points and the reaction was quenched by addition of 200 mM EDTA, 0.7% SDS. Substrate and product were separated by native polyacrylamide gel electrophoresis and detected and quantified by phosphorimaging analysis.

[6] = system: partial duplex DNA substrate (15 nt single stranded, 30 base pairs); assay: ATP-independent DNA unwinding assay; assay type: biochemical; details: 500 nM enzyme, excess over substrate, no ATP, 37° C.
Experimental: FIG. 13. Graph showing ATP-independent unwinding activity of NS3h wild-type, NS3h KDA, and NS3h DDDD. NS3h, 500 nM, was incubated with a partial duplex DNA substrate containing 15 nt of single stranded DNA and 30 base pairs at 37° C. Aliquots were quenched by addition of 100 μM poly dT and 60 nM of a 30mer oligonucleotide that served to prevent reannealing. ssDNA was separated from dsDNA by native polyacrylamide electrophoresis and the resulting fractions were quantified by using IMAGEQUANT software. DNA melting is shown for NS3h (●), NS3h KDA (♦), and NS3h DDDD (▪).
NS3h or NS3h mutant enzymes (500 nM) were mixed with 2 nM DNA substrate (described in steady state section) in 25 mM MOPS (pH 7.0), 10 mM NaCl, 0.1 mM EDTA (pH 8.0), 2 mM βME, and 0.1 mg/mL BSA at 37° C. Aliquots were transferred to a ‘quench solution’ containing 200 mM EDTA, 0.7% SDS, 5 mM ATP, 10 mM MgCl2, 60 nM annealing trap, and 100 μM poly-dT protein trap. Double- and single-stranded DNA were resolved on a native 20% polyacrylamide gel. The radiolabeled substrate and product were detected using a PHOSPHORIMAGER (Molecular Dynamics, Sunnyvale, Calif.); quantitation was performed with IMAGEQUANT software. The ratio of single- to double-stranded DNA was determined and plotted as a function of time.

[7] = system: 45:30mer DNA substrate; assay: Single turnover DNA unwinding assay (quench-flow, two-step mixing); assay type: biochemical; details: for single turnover unwinding rate / amplitude for unwinding: 500 nM enzyme; for single turnover unwinding rate: 2 nM substrate, fit to equation 1; for amplitude for unwinding: single turnover
Experimental: FIG. 14. Single turnover DNA unwinding by NS3h and NS3h mutant enzymes. A two-step mixing technique was used to measure single-turnover unwinding in the presence of excess NS3h. NS3h (500 nM) or mutant enzyme was rapidly mixed with substrate followed by a 10-second incubation. A second, rapid mixing step followed in which ATP, Mg^+2, and protein trap (poly dT) was added. Data were fit according to equation 1 resulting in unwinding rates of 3.1±0.1 s^−1 and 3.7±0.1 s−1 for NS3h (●) and NS3h KDA (♦), respectively. The amplitudes for unwinding were 0.35±0.01 nM and 0.21±0.01 nM for NS3h and NS3h KDA, respectively.
Unwinding assays were carried out using a Quench-Flow apparatus (RQF-3, KinTek Instruments, Austin, Tex.) with a two-step mixing protocol (49). Reactions were carried out in 25 mM MOPS (pH 7.0), 10 mM NaCl, 0.1 mM EDTA (pH 8.0), 2 mM βME, and 0.1 mg/mL BSA at 37° C.; all concentrations are post-mixing. NS3h (500 nM) was mixed with 2 nM DNA substrate (described in steady state section) for 10 seconds before adding 5 mM ATP, 10 mM MgCl2, 60 nM annealing trap (complementary to the displaced strand), and 100 μM poly-dT protein trap. The reaction was quenched after 0.1-15 seconds by ejection into a tube containing 200 mM EDTA, 0.7% SDS. Double- and single-stranded DNA were resolved on a native 20% polyacrylamide gel. The radiolabeled substrate and product were detected using a PHOSPHORIMAGER (Molecular Dynamics, Sunnyvale, Calif.); quantitation was performed with IMAGEQUANT software. The ratio of single- to double-stranded DNA was determined and plotted as a function of time. Data were fit to Equation 1, using KALEIDAGRAPH (Synergy Software, Reading, Pa.). This equation describes a 5-step mechanism for DNA unwinding that is necessary to fit the substantial lag phase associated with unwinding of the substrate (49, 52, 53). A{1−[1+kobst+1/2 (kobst)^2+1/6 (kobst)^3+1/24(kobst)^4]e^−kobs^t} Eq. 1 Results Crystallization and Structural Analysis of NS3h Bound to (dU)16

[8] = 100 nM enzyme, 250 nM substrate

Molecule | luciferase activity of HCV luciferase replicon after peptide [1] | Kd [2] | Kd [3] | ATPase specific activity [4] | steady state unwinding rate [5, 8] | steady state unwinding rate ([5]; 45:30mer DNA, steady state conditions) | ATP-independent unwinding [6] | single turnover unwinding rate [7] | fraction of 45:30mer unwound ([7]; same substrate, same conditions for both forms (unpublished data)) | amplitude for unwinding [7]
HIDAHFLSQTK-GGG-YARAAARQARA (HIDAHFLSQTKGGGYARAAARQARA; NS3-oligomerization inhibitor peptide with cell entry peptide) [HCV inhibitor peptide, 25 amino acid peptide: NS3 residues 541-551, three-glycine linker, peptide transduction domain …] | strongly reduced the luciferase activity |  |  |  |  |  |  |  |  | 
NS3h: wild type HCV NS3 helicase domain, expressed and purified independently of NS3 protease (protein) AVDFVPVESMETTMRSPVFTDNSSPPAVPQTFQVAHLHAPTGSGKSTKVPAAYAAQGYKVLVLNPSVAATLGFGAYMSKAHGIDPNIRTGVRTITTGAPITYSTYGKFLADGGCSGGAYDIIICDECHSTDSTTILGIGTVLDQAETAGARLVVLATATPPGSVTVPHPNIEEVALSSTGEIPFYGKAIPIETIKGGRHLIFCHSKKKCDELAAKLSGLGLNAVAYYRGLDVSVIPTSGDVIVVATDALMTGFTGDFDSVIDCNTCVTQTVDFSLDPTFTIETTTVPQDAVSRSQRRGRTGRGRMGIYRFVTPGERPSGMFDSSVLCECYDAGCAWYELTPAETSVRLRAYLNTPGLPVCQDHLEFWESVFTGLTHIDAHFLSQTKQAGDNFPYLVAYQATVCARAQAPPPSWDQMWKCLIRLKPTLHGPTPLLYRLGAVQNEVTTTHPITKYIMACMSADLEVVT |  | 47 ± 5 nM | 5.9 ± 1.4 nM | 126 s⁻¹ | 5.3 nM/min | approximately 1 nM/min | much greater ATP-independent unwinding than NS3h KDA or NS3h DDDD | 3.1 ± 0.1 s⁻¹ | 17% | 0.35 ± 0.01 nM
NS3h KDA: purified NS3 helicase domain with D543K/H545D/Q549A mutations (protein) AVDFVPVESMETTMRSPVFTDNSSPPAVPQTFQVAHLHAPTGSGKSTKVPAAYAAQGYKVLVLNPSVAATLGFGAYMSKAHGIDPNIRTGVRTITTGAPITYSTYGKFLADGGCSGGAYDIIICDECHSTDSTTILGIGTVLDQAETAGARLVVLATATPPGSVTVPHPNIEEVALSSTGEIPFYGKAIPIETIKGGRHLIFCHSKKKCDELAAKLSGLGLNAVAYYRGLDVSVIPTSGDVIVVATDALMTGFTGDFDSVIDCNTCVTQTVDFSLDPTFTIETTTVPQDAVSRSQRRGRTGRGRMGIYRFVTPGERPSGMFDSSVLCECYDAGCAWYELTPAETSVRLRAYLNTPGLPVCQDHLEFWESVFTGLTHIKADFLSATKQAGDNFPYLVAYQATVCARAQAPPPSWDQMWKCLIRLKPTLHGPTPLLYRLGAVQNEVTTTHPITKYIMACMSADLEVVT |  | 38 ± 4 nM | 2.6 ± 0.8 nM | 108 s⁻¹ | 5.7 nM/min |  |  | 3.7 ± 0.1 s⁻¹ |  | 0.21 ± 0.01 nM
